How the values were obtained:
Jak2 = Jak2 (UniProt O60674); test: phosphorylation enrichment, bacterial display (enrichment ratio); higher = better substrate or ligand; peptides without Tyr show the background
c-Src = test: as above
AncSZ = test: as above
Fyn = Fyn (UniProt P06241); test: as above
Fer (mouse) = test: as above
FGFR1 = FGFR1 (UniProt P11362); test: as above
EPHB2 = EPHB2 (UniProt P29323); test: as above
MERTK = MERTK (UniProt Q12866); test: as above
c-Abl (mouse) = test: as above
EPHB1 = EPHB1 (UniProt P54762); test: as above
Hck = Hck (UniProt P08631); test: as above
FGFR3 = FGFR3 (UniProt P22607); test: as above
Fes = Fes (UniProt P07332); test: as above
SHP2-C SH2 = test: SH2 binding enrichment of the phosphorylated peptide, bacterial display (enrichment ratio); higher = better substrate or ligand; peptides without Tyr show the background
Grb2 SH2 = Grb2 SH2 (UniProt P62993); test: as above
c-Src SH2 = test: as above
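Wherever SH2 binding enrichment of the phosphorylated peptide, bacterial display is given: peptide library displayed on the E. coli surface as eCPX fusions, selected cells deep-sequenced, score is each peptide's frequency after selection divided by its frequency in the input.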
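Wherever phosphorylation enrichment, bacterial display is given: 11-residue human phosphosite peptides and single-mutation variants displayed on the E. coli surface, counted by deep sequencing, each peptide's frequency after selection divided by its frequency in the unselected input library; frequency after pTyr selection over input frequency; kinase dosed for 20-30% of maximal phosphorylation in three min.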

Chain of FGFR3 (P22607 whole entry, looked up): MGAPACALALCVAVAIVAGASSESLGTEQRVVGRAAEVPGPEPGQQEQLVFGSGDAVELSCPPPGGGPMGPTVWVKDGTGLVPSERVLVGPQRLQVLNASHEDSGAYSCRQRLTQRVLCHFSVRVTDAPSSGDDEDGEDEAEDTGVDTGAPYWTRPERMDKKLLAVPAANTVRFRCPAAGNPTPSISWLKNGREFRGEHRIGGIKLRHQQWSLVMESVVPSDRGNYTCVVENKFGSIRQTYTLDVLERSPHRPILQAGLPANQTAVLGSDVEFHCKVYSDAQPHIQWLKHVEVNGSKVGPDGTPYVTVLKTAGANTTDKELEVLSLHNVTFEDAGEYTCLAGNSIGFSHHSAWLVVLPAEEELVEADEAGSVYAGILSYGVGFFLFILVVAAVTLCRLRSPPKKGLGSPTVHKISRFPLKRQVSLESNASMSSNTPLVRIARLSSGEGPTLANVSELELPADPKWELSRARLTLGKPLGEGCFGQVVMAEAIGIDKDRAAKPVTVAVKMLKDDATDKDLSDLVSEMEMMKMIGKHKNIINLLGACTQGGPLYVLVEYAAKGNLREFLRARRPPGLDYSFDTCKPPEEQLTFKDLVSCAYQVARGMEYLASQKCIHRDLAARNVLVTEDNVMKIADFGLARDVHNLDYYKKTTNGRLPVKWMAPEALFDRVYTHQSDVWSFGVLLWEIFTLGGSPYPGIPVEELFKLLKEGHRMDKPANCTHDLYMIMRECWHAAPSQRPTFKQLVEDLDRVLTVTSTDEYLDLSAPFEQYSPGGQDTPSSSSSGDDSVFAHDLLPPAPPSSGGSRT
Chain of Fes (P07332 whole entry, looked up): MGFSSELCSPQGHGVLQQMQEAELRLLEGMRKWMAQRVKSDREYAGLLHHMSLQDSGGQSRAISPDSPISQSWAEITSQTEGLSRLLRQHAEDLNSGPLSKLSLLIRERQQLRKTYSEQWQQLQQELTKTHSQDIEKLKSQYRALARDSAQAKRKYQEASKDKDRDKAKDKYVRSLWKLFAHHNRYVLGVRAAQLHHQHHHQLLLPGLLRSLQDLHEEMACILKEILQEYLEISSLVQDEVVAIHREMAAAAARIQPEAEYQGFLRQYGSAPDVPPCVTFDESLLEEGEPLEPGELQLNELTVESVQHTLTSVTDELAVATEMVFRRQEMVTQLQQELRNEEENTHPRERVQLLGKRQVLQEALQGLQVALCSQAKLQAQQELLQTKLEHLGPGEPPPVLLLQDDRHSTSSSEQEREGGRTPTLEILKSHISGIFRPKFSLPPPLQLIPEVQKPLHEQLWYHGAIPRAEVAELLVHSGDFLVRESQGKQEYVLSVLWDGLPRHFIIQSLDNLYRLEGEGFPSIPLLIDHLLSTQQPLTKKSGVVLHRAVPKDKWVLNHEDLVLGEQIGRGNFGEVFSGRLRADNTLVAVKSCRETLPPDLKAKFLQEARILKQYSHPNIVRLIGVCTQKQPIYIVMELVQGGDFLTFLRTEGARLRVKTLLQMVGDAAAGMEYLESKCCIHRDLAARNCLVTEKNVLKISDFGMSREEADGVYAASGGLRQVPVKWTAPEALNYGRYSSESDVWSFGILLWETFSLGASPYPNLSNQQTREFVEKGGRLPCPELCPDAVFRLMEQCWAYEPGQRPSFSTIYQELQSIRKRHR
Chain of Grb2 SH2 (P62993 whole entry, looked up): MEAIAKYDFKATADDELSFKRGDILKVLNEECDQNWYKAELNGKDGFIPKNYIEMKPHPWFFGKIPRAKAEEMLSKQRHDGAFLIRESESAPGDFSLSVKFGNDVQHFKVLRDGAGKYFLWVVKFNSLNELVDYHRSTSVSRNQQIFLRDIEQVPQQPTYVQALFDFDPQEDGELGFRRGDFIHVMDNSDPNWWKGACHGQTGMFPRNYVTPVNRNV
Chain of Hck (P08631 whole entry, looked up): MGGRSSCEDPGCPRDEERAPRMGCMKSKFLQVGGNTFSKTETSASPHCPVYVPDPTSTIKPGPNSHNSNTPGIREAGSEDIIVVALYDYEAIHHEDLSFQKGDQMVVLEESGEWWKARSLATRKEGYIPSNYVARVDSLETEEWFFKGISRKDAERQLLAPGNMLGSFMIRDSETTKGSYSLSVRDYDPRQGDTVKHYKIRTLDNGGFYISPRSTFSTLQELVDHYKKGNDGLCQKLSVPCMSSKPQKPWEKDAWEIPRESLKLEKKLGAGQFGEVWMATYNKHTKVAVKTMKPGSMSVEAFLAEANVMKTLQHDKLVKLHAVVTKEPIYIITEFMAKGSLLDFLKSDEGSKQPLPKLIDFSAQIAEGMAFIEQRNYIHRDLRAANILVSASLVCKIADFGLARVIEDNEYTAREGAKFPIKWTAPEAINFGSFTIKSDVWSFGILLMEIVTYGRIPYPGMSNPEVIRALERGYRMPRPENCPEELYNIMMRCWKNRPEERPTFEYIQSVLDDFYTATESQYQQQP
Chain of FGFR1 (P11362 whole entry, looked up): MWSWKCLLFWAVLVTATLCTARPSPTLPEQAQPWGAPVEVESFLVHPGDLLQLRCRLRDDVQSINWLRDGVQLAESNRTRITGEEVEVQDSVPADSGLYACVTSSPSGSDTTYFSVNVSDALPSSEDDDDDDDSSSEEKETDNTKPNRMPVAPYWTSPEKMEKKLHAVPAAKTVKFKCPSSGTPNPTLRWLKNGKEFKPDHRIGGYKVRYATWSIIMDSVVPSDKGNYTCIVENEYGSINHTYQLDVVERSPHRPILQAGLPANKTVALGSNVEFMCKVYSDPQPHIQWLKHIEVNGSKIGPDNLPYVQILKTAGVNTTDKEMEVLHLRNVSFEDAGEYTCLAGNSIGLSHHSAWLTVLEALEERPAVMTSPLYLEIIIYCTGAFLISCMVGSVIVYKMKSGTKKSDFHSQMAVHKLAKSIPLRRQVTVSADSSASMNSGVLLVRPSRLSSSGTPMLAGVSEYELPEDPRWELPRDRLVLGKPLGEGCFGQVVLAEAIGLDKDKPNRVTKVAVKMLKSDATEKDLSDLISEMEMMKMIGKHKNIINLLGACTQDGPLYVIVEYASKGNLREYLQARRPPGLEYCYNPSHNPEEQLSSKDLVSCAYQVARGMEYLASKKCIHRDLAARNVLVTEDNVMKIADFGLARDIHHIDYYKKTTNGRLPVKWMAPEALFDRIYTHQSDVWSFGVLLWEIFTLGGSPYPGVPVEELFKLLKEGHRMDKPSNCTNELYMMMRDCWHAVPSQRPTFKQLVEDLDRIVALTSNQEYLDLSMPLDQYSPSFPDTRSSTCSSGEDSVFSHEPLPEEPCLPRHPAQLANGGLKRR
Chain of EPHB2 (P29323 whole entry, looked up): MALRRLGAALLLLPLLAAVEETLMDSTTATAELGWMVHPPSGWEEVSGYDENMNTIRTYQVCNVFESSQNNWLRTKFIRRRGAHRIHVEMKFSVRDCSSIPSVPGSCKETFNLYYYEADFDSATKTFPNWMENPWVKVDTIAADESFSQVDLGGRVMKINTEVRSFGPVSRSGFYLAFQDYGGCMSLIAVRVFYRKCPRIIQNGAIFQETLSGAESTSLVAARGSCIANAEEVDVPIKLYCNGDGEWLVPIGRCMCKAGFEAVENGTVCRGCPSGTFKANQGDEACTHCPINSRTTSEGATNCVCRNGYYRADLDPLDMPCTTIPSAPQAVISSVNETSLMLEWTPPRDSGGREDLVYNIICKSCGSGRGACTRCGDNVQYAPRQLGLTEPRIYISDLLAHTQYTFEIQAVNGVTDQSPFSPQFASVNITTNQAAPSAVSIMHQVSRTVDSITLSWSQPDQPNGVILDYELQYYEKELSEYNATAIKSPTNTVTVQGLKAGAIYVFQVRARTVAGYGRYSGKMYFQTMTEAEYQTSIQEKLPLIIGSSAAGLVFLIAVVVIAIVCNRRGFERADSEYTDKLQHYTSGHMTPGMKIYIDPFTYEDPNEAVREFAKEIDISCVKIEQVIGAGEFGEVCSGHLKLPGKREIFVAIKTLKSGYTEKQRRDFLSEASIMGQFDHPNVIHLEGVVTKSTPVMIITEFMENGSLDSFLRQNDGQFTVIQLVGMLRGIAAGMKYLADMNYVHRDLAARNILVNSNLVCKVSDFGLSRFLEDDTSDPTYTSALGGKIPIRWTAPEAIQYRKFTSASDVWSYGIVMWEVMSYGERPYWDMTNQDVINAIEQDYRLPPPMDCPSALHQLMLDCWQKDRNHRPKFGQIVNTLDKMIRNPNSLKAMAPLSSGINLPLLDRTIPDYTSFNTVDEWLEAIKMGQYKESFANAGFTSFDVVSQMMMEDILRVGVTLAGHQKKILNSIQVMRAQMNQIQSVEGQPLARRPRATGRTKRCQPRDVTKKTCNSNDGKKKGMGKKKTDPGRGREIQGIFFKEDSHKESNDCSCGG
Chain of Fyn (P06241 whole entry, looked up): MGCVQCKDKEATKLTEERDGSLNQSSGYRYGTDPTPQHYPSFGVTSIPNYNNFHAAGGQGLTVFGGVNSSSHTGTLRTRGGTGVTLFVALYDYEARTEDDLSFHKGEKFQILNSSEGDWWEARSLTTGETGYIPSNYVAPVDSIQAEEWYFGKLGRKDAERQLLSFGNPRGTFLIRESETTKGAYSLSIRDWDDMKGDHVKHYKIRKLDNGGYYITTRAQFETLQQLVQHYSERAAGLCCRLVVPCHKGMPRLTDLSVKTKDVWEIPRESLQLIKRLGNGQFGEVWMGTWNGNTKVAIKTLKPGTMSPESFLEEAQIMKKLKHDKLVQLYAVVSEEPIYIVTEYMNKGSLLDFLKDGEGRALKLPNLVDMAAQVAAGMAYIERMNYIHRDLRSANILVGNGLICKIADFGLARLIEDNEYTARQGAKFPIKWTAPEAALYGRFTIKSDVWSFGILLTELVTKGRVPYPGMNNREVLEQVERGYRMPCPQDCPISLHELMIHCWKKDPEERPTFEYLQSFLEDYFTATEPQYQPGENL

Row | Sequence | phosphorylation enrichment (Jak2) | phosphorylation enrichment (c-Src) | phosphorylation enrichment (AncSZ) | phosphorylation enrichment (Fyn) | phosphorylation enrichment (Fer (mouse)) | phosphorylation enrichment (FGFR1) | phosphorylation enrichment (EPHB2) | phosphorylation enrichment (MERTK) | phosphorylation enrichment (c-Abl (mouse)) | phosphorylation enrichment (EPHB1) | phosphorylation enrichment (Hck) | phosphorylation enrichment (FGFR3) | phosphorylation enrichment (Fes) | SH2 binding enrichment (SHP2-C SH2) | SH2 binding enrichment (Grb2 SH2) | SH2 binding enrichment (c-Src SH2)
1 | KVALLYKPFFF [POLE_Y100_P99L_YF] | 1.12 | 1.67 | 1.15 | 0.827 | 1.39 | 0.496 | 0.606 | 0.772 | 0.921 | 0.516 | 0.82 | 0.704 | 1.17 | 1.62 | 1.78 | 1.49
2 | KVMANYMYKAG [MAML2_Y513] | 0.49 | 0.296 | 0.617 | 0.404 | 0.388 | 0.529 | 0.533 | 0.33 | 0.54 | 0.505 | 0.461 | 0.512 | 0.836 | 1.06 | 1.16 | 0.849
3 | KVMANYVFKAG [MAML2_Y513_M514V_YF] | 0.564 | 0.433 | 0.617 | 0.382 | 0.355 | 0.459 | 0.515 | 0.401 | 0.485 | 0.396 | 0.435 | 0.486 | 0.656 | 0.663 | 1.1 | 0.614
4 | KWRGQYDVAIE [BTK_Y425_K430E] | 0.708 | 0.437 | 0.631 | 0.39 | 0.505 | 0.448 | 0.531 | 0.424 | 0.537 | 0.441 | 0.509 | 0.481 | 0.774 | 0.823 | 1.01 | 3.07
5 | KYVKMCDNHQL [MYO9A_Y203_Y203C] | 0.491 | 0.429 | 0.635 | 0.407 | 0.379 | 0.532 | 0.632 | 0.447 | 0.512 | 0.442 | 0.432 | 0.547 | 0.546 | 0.921 | 1.03 | 0.75
6 | KYWREYILSLE [GPC3_Y299] | 0.974 | 0.856 | 1.03 | 0.427 | 0.366 | 0.499 | 0.569 | 0.39 | 0.677 | 0.541 | 0.461 | 0.752 | 1.05 | 1.71 | 1.48 | 1.37
7 | LAETSYVKVLE [MAGEA1_Y276] | 0.888 | 0.512 | 0.817 | 0.479 | 0.472 | 0.53 | 0.471 | 0.452 | 0.616 | 0.499 | 0.473 | 0.532 | 1.03 | 7 | 0.94 | 1.69
8 | LAIEWYVVVCK [RHO_Y136_R135W] | 1.88 | 0.852 | 2.49 | 0.972 | 0.847 | 1.45 | 1.33 | 0.676 | 2.27 | 1.8 | 1.36 | 2.21 | 3.21 | 0.583 | 1.05 | 0.5
9 | LARDMCDKEFF [MET_Y1230_Y1230C_YF] | 1.34 | 0.715 | 1.79 | 0.513 | 0.738 | 0.492 | 0.816 | 0.697 | 1.42 | 0.61 | 0.653 | 1.06 | 2.12 | 0.676 | 0.778 | 0.475
10 | LAVVDYIRRQK [ATM_Y1915_M1916I] | 0.855 | 1.21 | 1.06 | 0.649 | 0.839 | 0.791 | 1.42 | 0.863 | 1.37 | 0.918 | 0.749 | 0.92 | 1.24 | 0.461 | 0.441 | 0.338
11 | LDAFIYDAALL [GRIN2A_Y730_V734L] | 1.33 | 7.16 | 1.44 | 8.97 | 14.9 | 0.55 | 2.32 | 2.28 | 4.39 | 2.23 | 7.57 | 0.902 | 1.86 | 0.546 | 0.735 | 0.581
12 | LDPMVYMNDKS [PTK2B_Y834] | 1.25 | 0.669 | 1.09 | 0.55 | 0.678 | 0.727 | 0.595 | 0.648 | 0.843 | 0.727 | 0.386 | 0.586 | 1.28 | 0.792 | 2.36 | 1.01
13 | LEAVSYSSRFA [RNLS_Y190_YF] | 0.564 | 0.435 | 0.718 | 0.474 | 0.408 | 0.432 | 0.359 | 0.399 | 0.596 | 0.369 | 0.463 | 0.496 | 0.773 | 0.793 | 0.777 | 0.486
14 | LECEWYKNGVK [TTN_Y2112_P2107L] | 1.39 | 0.576 | 2.15 | 0.619 | 0.771 | 0.744 | 0.923 | 0.921 | 1.16 | 1.36 | 0.931 | 1.01 | 2.16 | 0.48 | 0.613 | 0.322
15 | LEIETYRRLLD [KRT12_Y429] | 1.01 | 0.369 | 0.854 | 0.468 | 0.471 | 0.45 | 0.549 | 0.367 | 0.656 | 0.616 | 0.497 | 0.627 | 1.03 | 0.602 | 0.762 | 0.473
16 | LFLACYFIGGG [UBD_Y161_C162F] | 1.35 | 0.647 | 1.16 | 0.502 | 0.533 | 0.453 | 0.612 | 0.45 | 1.03 | 0.773 | 0.55 | 1.05 | 1.77 | 0.855 | 0.861 | 0.793
17 | LGLDEYLDKLK [FMNL2_Y352] | 1.71 | 0.375 | 1.47 | 0.394 | 0.933 | 0.536 | 0.816 | 0.569 | 0.982 | 0.716 | 0.587 | 0.971 | 1.27 | 0.662 | 0.78 | 0.588

Reference: the supplement of paper PMC10065799, “High-throughput profiling of sequence recognition by tyrosine kinases and SH2 domains using bacterial peptide display” (eLife, 2023)
